Laboratory results published in EP4752156A1 (Shanghai Yunxuan Biotechnologies, Inc., dated 2026).

biological target: T1, GST-ZZS01 fusion protein (UniProt P08515 1-218 = GST); test: Biacore SPR as in Example 3.3
T1 sequence (P08515 1-218, tags or fused parts left off): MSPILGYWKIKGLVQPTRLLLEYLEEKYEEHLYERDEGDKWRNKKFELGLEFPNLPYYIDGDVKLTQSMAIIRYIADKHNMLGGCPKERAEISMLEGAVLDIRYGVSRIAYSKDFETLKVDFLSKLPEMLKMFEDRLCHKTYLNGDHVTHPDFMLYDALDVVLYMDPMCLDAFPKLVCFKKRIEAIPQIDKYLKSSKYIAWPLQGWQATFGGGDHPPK

| Binder | Kd [nM] |
| --- | --- |
| h12 (antibody, V domains shown) VH: QVQLVESGGGLVKPGGSLRLSCAASGFSFSDSYMSWLRQAPGKGLEWVSYISSSSSYTKYTDSVKGRFTISRDNAKNSLYLQMSSLRAEDTAVYYCAREGSPGGQGTLVTVSS VL: DVVMTQSPLSLPVTLGQPASFSCRSSQSLVFTDGNTFLSWFLQRPGQSPRRLIYRVSNRDPGVPDRFSGSGSGTDFTLKISRVEAEDVGVYYCMQGTQWPFTFGPGTKVDIKR | 6.03 |
| h4 (antibody, V domains shown) VH: QVQLVESGGGLVKPGGSLRLSCAASGFTFSDHYMSWIRQTPGKGLEWVSYISSSGTYTNYADSVKGRFIISRDNAKNSLFLQMNSLRAEDTAVYYCAREGSPGGQGTLVTVSS VL: DVVMTQSPLSLPVTLGQPASISCRSSQSLVFSDGNTYLNWFQQRPGQSPRRLIYKVSDRDPGVPERFSGSGSGTDFTLKISRVEAEDIGVYYCMQGSHWPFTFGPGTKVDIKR | 2.86 |
| h2 (antibody, V domains shown) VH: QVQLVESGGGLVKPGGSLRLSCAASGFTFSAHYMSWIRQAPGKGLEWVSYISPSSSYTVYADSVKGRFTISRDNAKNSLFLQMNSLRAEDTAVYYCAREGSPGGQGTLVTVSS VL: DVVMTQSPLSLPVTLGQPASISCRPSQSLVDSDGNTYLSWFQQRPGQSPRRLIYKVSDRDSGVPDRFSGSGSVTDFTLKISRVEAEDVGIYYCMQGTHWPFTFGPGTKVDIKR | 5.24 |
| h21 (antibody, V domains shown) VH: QVQLVESGGGLVKPGGSLRLSCAASGFTFSAHYMSWIRQAPGKGLEWVSYISPSSSYTVYADSVKGRFTISRDNAKNSLFLQMNSLRAEDTAVYYCAREGSPGGQGTLVTVSS VL: DVVMTQSPLSLPVTLGQPASISCRSTQSLVDSDGNTYLSWFQQRPGQSPRRLIYKVSDRDSGVPDRFSGSGSGTDFTLKISRVEAEDIGIYYCMQGTHWPFTFGPGTKVDIKR | 1.48 |
| h22 (antibody, V domains shown) VH: QVQLVESGGGLVKPGGSLRLSCAASGFTFSAHYMSWIRQAPGKGLEWVSYISPSSSYTVYADSVKGRFTISRDNAKNSLFLQMNSLRAEDTAVYYCAREGSPGGQGTLVTVSS VL: DVVMTQSPLSLPVTLGQPASISCRSSQNLVDSDGNTYLSWFQQRPGQSPRRLIYKVSDRDSGVPDRFSGSGSGTDFTLKINRVEAEDIGIYYCMQGSHWPFTFGPGTKVDIKR | 0.104 |
| h19 (antibody, V domains shown) VH: QVQLVESGGGLVKPGGSLRLSCAASGFSFSDSYMSWIRQAPGKGLEWVSYISSSSSYTNYADSVKGRFTISRDNAKNSLYLQMNSLRVEDTAVYYCAREGSPGGQGTLVTVSS VL: DVVLTQSPLSLPVTLGQPASISCRSSQSLVDSDGNTYLSWFQQRPGQSPRRLIYRVSNRDSGVPDRFSGSGSGTDFTLKISRVEAEDVGVYYCMQGTHWPFTFGPGTKVDIKR | 3.53 |
| h5 (antibody, V domains shown) VH: QVQLVESGGGLVKPGGSLRLSCAASGFTFSDHYMSWIRQAPGKGLEWVAYISSSSTYTKYGDSVKGRFTISRDNAKNSLYLQMNSLRAEDTAVYYCAREGSPGGQGTLVTVSS VL: DVVMTQSPLSLPVTLGQPASISCRSSQSLVFSDGNTYLSWFQQRPGQSPRRLIFKVSDRDSGVPDRFSGSGSGTDFTLKISRMEAEDVGVYYCMQGTQWPFTFGPGTKVDIKR | 10.1 |
| 18 (antibody, V domains shown) VH: QVQLVESGGGLVKPGGSLRLSCAASGFTFSASYMSWIRQAPGKGLEWVSYISSSSTYTNYADSVKGRFTISRDNAKNSLYLQMDSLRAEDTAMYFCAREGSPGGQGTLVTVSS VL: DVVMTQSPLSLPVTLGQSASISCRSSQSLVYSDGDTFLSWFQQRPGQSPRRLIYMVSNRDPGVPDRFSGSGSGTDFTLKISRVEAEDVGIYYCMQGTNWPFTFGPGTRVDIKR | 3.46 |
| h14 (antibody, V domains shown) VH: QVQLVESGGGLVEPGGSLRLSCAASGFTFSDHYMSWIRQAPGRGLEWVSYISNSGGYTNYADSVKGRFTISRDNAKNSLYLQMNSLRAEDTAVYYCAREGSPGGQGTLVTVSS VL: DVVMTQSPLSLPVTLGQPASMSCRSSQSLVDSDGNTYLSWFQQRPGQSPRRLIYKVSDRDSGVPDRFSGGGSGTDFTLKISRVEAEDVGIYYCMQGTRWPFTFGPGTKVDIKR | 4.39 |
| h17 (antibody, V domains shown) VH: QVQLVESGGGLVEPGGSLRLSCAASGFTFSDHYMSWIRQAPGRGLEWVSYISNSGGYTNYADSVKGRFTISRDNAKNSLYLQMNSLRAEDTAVYYCAREGSPGGQGTLVTVSS VL: DVVMTQSPLSLPVTLGQPASMSCRSSQSLVDSDGNTYLSWFQQRPGQSPRRLIYKVSDRDSGVPDRFSGGGSGTDFTLKIRRVEAEDVGIYYCMQGTRWPFTFGPGTKVDIKR | 3.18 |
| h11 (antibody, V domains shown) VH: QVQLVESGGGLVKPGGSLRLSCEASGFTFSAHYMSWIRQAPGKGLEYVSYISGSSSYTNYVDSVKGRFTISRDNAKNSLYLQMNSLRVEDTAVYYCAREGSPGGQGTLVTVSS VL: DVVLTQSPLSLPVTLGQPASISCRSSQSLVDSDGNTYLSWFHQRPGQSPRRLIYKVSDRDSGVPDRFSGSGSGTDFTLKISRVEAEDVGVYYCMEGTHWPFTFGPGTKVDIKR | 0.652 |
| h20 (antibody, V domains shown) VH: QVQLVESGGGLVKPGGSLRLSCAASGFSFSDSYMSWIRQAPGKGLEWVSYISSSSSYTNYVDSVKGRFTISRDNAKNSLYLQMNSLRVEDTAVYYCAREGSPGGQGTLVTVSS VL: DVVMTQSPLSLPVTLGQPASISCRSSQSLVDSDGNTYLSWFQQRPGQSPRRLIYRVSNRDSGVPDRFSGSGSGTDFTLKISRVEAEDVGVYYCMQGTHWPFTFGPGTKVDIRR | 2 |
| h10 (antibody, V domains shown) VH: QVQLVESGGGLVKPGGSLRLSCEASGFTFSAHYMSWIRQAPGKGLEYVSYISSSSSYTNYVDSVKGRFTISRDNAKNSLYLQMNSLRVEDTAVYYCAREGSPGGQGTLVTVSS VL: DVVLTQSPLSLPVTLGQPASISCRSSQSLVDSDGNTYLSWFHQRPGQSPRRLIYKVSDRDSGVPDRFSGSGSGTDFTLKISRVEAEDVGVYYCMEGTHWPFTFGPGTKVDIKR | 0.0847 |
| h15 (antibody, V domains shown) VH: QVQLVESGGGLVRPGGSLRLSCAASGFTFSDHYMSWIRQAPGKGLEWVSYISGSSSYTKYADSVKGRFTISRDNAKNSLYLQMNSLRAEDTAVYYCAREGSPGGQGTLVTVSS VL: DVVLTQSPLSLPVTLGQPASISCRSSQSLVFSDGNTFLAWFQQRPGQSPRRLIYRISNRDSGVPDRFSGSGSDTDFTLKISRVEAEDVGVYYCMQGTQWPFTFGPGTKVDIKR | 5.78 |
| h16 (antibody, V domains shown) VH: QVQLVESGGGLVKPGGSLRLSCEASGFTFSAHYMSWIRQAPGKGLEYVSYISSSSSYTNYADSVKGRFTISRDNAKNSLYLQMNSLRAEDTAVYYCAREGSPGGQGTLVTVSS VL: DVVLTQSPLSLPVTLGQPASISCRSSQSLVDSDGNTYLSWFHQRPGQSPRRLIYKVSDRDSGVPDRFSGSGSGTDFTLKISRVEAEDVGVYYCMEGTHWPFTFGPGTKVDIKR | 2.17 |
| h13 (antibody, V domains shown) VH: QVQLVESGGGLVKPGGSLRLSCAASGFSFSDSYMSWLRQAPGKGLEWVSYISSSSSYTKYADSVKGRFTISRDNAKNSLYLQMNSLRAEDTAVYYCAREGSPGGQGTLVTVSS VL: DVVLTQSPLSLPVTLGQPASFSCRSSQSLVFTDGNTFLSWFLQRPGQSPRRLIYRVSNRDPGVPDRFSGSGSGTDFTLKISRVEAEDVGVYYCMQGTQWPFTFGPGTKVDIKR | 3.66 |
| h25 (antibody, V domains shown) VH: EVQLVESGGGLVKRGGSLRLSCAASGFTFSSYSMHWVRQAPGKGLEWVSSISSRSTYIYYADSVKGRFTISRDNAKNSLYLQMNSLSAEDTAVYYCARGSGSYYVFDYWGQGTLVTVSS VL: ELVMTQSPATLSVSPGERATLSCRASQSVSSNLAWYQQKPGQAPRLLIYGASSRATNIPARFSGSGSGTEFTLTISSLQSEDFAVYYCQQYDNWPMYSFGQGTKLEIKR | 0.32 |
| h1 (antibody, V domains shown) VH: EVQLVESGGGLVKPGGSLRLSCAASGFTFSSYSMSWVRQAPGKGLEWVSSISSRSNYIYYADSVKGRFTISRDNAKNSLYLQVNSLRAEDTAVYYCARGSGSYYVFDYWGQGTLVTVSS VL: EIVMTQSPATLSVSPGDRATLSCRASQSISSDLAWYQQKPGQAPRLLIYAASTRATGFPARFSGSGSGTEFTLTISSLQPEDFAVYYCQQYNNWPMYAFGQGTKLEIKR | 0.289 |
| h27 (antibody, V domains shown) VH: EVQLVESGGGLVKPGGSLRLSCAASGFTFSSYSMSWVRQAPGKGLEWVSSISSRSNYIYYADSVKGRITISRDNAKNSLYLQMNSLRAEDTAVYYCARGSGSYYVFDYWGQGTLVTVSS VL: ELVMTQSPATLSMSPGDRATLSCRASQSIRSDLAWYQQKPGQAPRLLIYDASTRATGIPARFSGSGSGTEFTLSISSLQSEDFAVYYCQQYNNWPMYTFGQGTKLEIKR | 0.16 |

biological target: T1, GST-ZZS01 fusion protein; test: Biacore SPR, 25 C; GST-antigen captured on anti-GST CM5 chip, antibody injected

| Binder | Kd [nM] | koff [s⁻¹] | kon [M⁻¹ s⁻¹] |
| --- | --- | --- | --- |
| murine monoclonal antibody 1D6 (antibody, V domains shown, also called 106 (anti-zzs01); ID6) VH: QIQLVQSGPELKKPGETVKISCKASGYTFTNYAVNWVIQAPGKGLKWMGWINAYTGEPTYADDFKGRFAFSLETSASTAYLQINNLKNEDMGIYFCARGGYDTYALDYWGQGTSVTVSS VL: not shown | 4.82 | 1.19e-05 | 2480 |

biological target: GST-ZZS05 fusion protein (UniProt P08515 1-218 = GST); test: as above
Sequence (P08515 1-218, tags or fused parts left off): as the sequence (P08515 1-218, tags or fused parts left off) above

| Binder | Kd [nM] | koff [s⁻¹] | kon [M⁻¹ s⁻¹] |
| --- | --- | --- | --- |
| murine monoclonal antibody F11 (antibody, V domains shown, also called F11 (anti-zzs05)) VH: EVQLQQSGPELVKPGASVKISCKTSGYTFTEYTMHWVKQSHGKTLEWIGGIYPNNSGTRYNQKFRGKATLTADKSSSTAYMELRSLTTEDSAVYYCHRYELYWYFDVWGAGTTVTVSS VL: DIVLTQSPASLAVSLGQRATISCRASKSVSTAGYSYMHWYQQKPGQPPKLLIYLTSNLESGVPARFSGSGSGTDFTLNIHPVEEEDAATYYCQHSREVPYTFGGGTKLEIKR | 6.9 | 0.000949 | 137000 |
